± gives the uncertainty stated by the source.
Test: amyloid nucleation score (Sup35N fusion, yeast selection) (log enrichment); library NNK1; higher = more nucleation; inactive = no reads after selection
Method in brief: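 On medium lacking adenine and uracil, psi-negative yeast expressing peptides of 20 random codons fused to Sup35N were grown 7 days at 30°C after a 24-hour induction with 100 μM copper sulfate. Illumina sequencing of input and output plasmid inserts gave the reads, and sequences under 100 input reads were excluded. The nucleation score is the DiMSum log enrichment of output over input reads, centred on the mode score of non-aggregating sequences.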

| Substance | amyloid nucleation score |
| --- | --- |
| NSWKNADVWCNASMHGWSGW | 0.697 ± 0.72 |
| NTCLH | 1.63 ± 0.43 |
| NTGRISYFFVVSNPSPYSLR | 3.75 ± 0.058 |
| NTKWLMGSLSIIVCMPKSYW | 6.294 ± 0.045 |
| NTLCLHDFFHGLILWLSHQA | 1.01 ± 0.49 |
| NTNYGLIQFGILLCRFC | 6.814 ± 0.052 |
| NTSELRGNMSRHCKNSGGVI | -0.058 ± 0.62 |
| NTVFVIDESFGVMGWLGLKQ | 0.294 ± 0.82 |
| NVIGSGE | 1.08 ± 0.51 |
| NVLVAVFLFYVGPIGVAHCY | 1.12 ± 0.37 |
| NVLWGCQPNFVWDAWLRTEH | 0.777 ± 0.73 |
| NVMIAIPYVGVDKRGMVSGM | 5.22 ± 0.1 |
| NVSNLGSLMSTYGESCLVNF | inactive |
| NVTCSHPGFFYSIVKTYMFR | -0.877 ± 1.9 |
| NVTDAI | inactive |
| NVTNQCMLW | 0.509 ± 0.33 |
| NWCTNTRSIFTIRGTDAGTL | -0.721 ± 1.1 |
| NWFLYWT | 3.77 ± 0.11 |
| NWHGSLKPPYACEGALRVWR | 6.26 ± 0.08 |
| NWRSTLVSCLVYLPVLCCRC | 5.31 ± 0.058 |
| NWYVVYSWSEQIYREDSMGT | -0.52 ± 0.71 |
| NWYYRWELFVACFYLYSGWE | inactive |
| NYAQVLRTSFTNGVLTLKEE | -0.526 ± 0.86 |
| NYFAIPCFESWSWRMYKVGF | 0.186 ± 0.9 |
| NYFEKR | -0.261 ± 0.47 |

| Substance | amyloid nucleation score |
| --- | --- |
| NYFFAAACKKVVQGQPCSF | 1.59 ± 0.29 |
| NYFIVLSR | 2.09 ± 0.43 |
| NYFTVCLKGVRSDPPSVAKG | -0.596 ± 0.4 |
| NYILFWRTSSNFECPYP | 0.181 ± 0.24 |
| NYLLWVAHPIVSY | -0.502 ± 0.34 |
| NYNTIWMMKWFNGRWFLSAV | -0.293 ± 0.94 |
| PAHKLILFPPCCVGVWYSER | inactive |
| PALFVCSSFKLFMPNILGNQ | 6.16 ± 0.063 |
| PALWDLCVPKLIVANLIERS | -1.1 ± 1.4 |
| PALWWSMYSIQCPEEIGGAV | 0.405 ± 0.55 |
| PAVFCW | 0.387 ± 0.48 |
| PCINRFHGIGFHCRLWTVYV | 0.816 ± 0.98 |
| PCIVKYRNSGLHNYRIRLNR | -1.12 ± 0.97 |
| PCTMGMYIGAGHR | 0.418 ± 1 |
| PCYRLWLVSAWAVTQEFTSW | 1.35 ± 0.14 |
| PDHLTIQSCDARYGFASQL | 1.78 ± 0.47 |
| PDMCQERNYCELYPCKARAT | -0.612 ± 0.41 |
| PDSCIENLDMWYTFNGDNDT | -0.828 ± 0.3 |
| PDSTVARVDVSPELIFCLKS | -0.708 ± 0.6 |
| PDTYRLWRWSCIFEKCCDEG | -0.194 ± 0.41 |
| PEDFHNLFLKINGYLSYAFV | -1.54 ± 1.1 |
| PFTCCAVVPFSVTFSRVLES | inactive |
| PFTNQPMSPARHLFI | -1.88 ± 2.4 |
| PGFPNLVTSRTLIVCQL | inactive |
| PGLFYETDHVASVVVCKSPH | -0.231 ± 0.45 |

| Substance | amyloid nucleation score |
| --- | --- |
| PIFLGLFDDRYMG | 0.116 ± 0.45 |
| PIIILFL | 1.15 ± 0.54 |
| PILCGTSLSQINDYYGV | -0.369 ± 0.56 |
| PITMQSMSFFRRVLLVFFLY | 0.813 ± 0.5 |
| PKCLNESMVGRRWLAIMGRV | 0.328 ± 0.72 |
| PLAAYCSVDYGQKIQIATVP | -0.541 ± 0.42 |
| PLAMNSFVIVIDGRLHVLGD | 4.72 ± 0.12 |
| PLLEATNCDLHGLVRLLMRF | 0.651 ± 0.72 |
| PLPPLVMLPQ | -0.481 ± 0.8 |
| PLPVNPYPTHATIGWPRISG | -0.427 ± 0.55 |
| PLSVFTTPPSDHCDIKGKIE | -0.852 ± 2.1 |
| PLVCRGLLSRCGNPSGKCGR | -0.125 ± 1.7 |
| PLVNVYSSAYYSRHLKGLCV | -0.782 ± 0.69 |
| PLVSTHALSAGILYCFKFYR | 5.57 ± 0.097 |
| PMFWRYILFSANNEPQFIRQ | 0.073 ± 0.24 |
| PMLGGRESEEPRVGWKVGWV | 0.377 ± 0.27 |
| PMSGVGYGRMRLSAAWPVDK | -0.604 ± 0.78 |
| PMSRIKWILLSGLSKGLSYG | 2.41 ± 0.17 |
| PMTKCMLSSLGWCAHVPVRE | 0.369 ± 0.52 |
| PMVIYNFEFNFGVSSDRIYA | 4.35 ± 0.15 |
| PNFWVRFKYGYLSSLNSRTV | -0.375 ± 0.52 |
| PNTLYSLTIIMSARLNSSLL | 0.371 ± 0.57 |
| PPGIRAYM | -0.036 ± 0.35 |
| PPSLQ | -0.263 ± 1.4 |
| PPVHSDFKWAFVWVQLVWRG | -0.016 ± 0.53 |

| Substance | amyloid nucleation score |
| --- | --- |
| PQALGSTHLQTRRDQHVIF | -0.046 ± 0.53 |
| PRGLVWNVPRLSKTVASILF | -0.942 ± 0.73 |
| PRLLLGAHQSYLGACSAGYM | 1.06 ± 0.71 |
| PRPQLPVKYLYSRLIGETCG | 3.25 ± 0.071 |
| PRWSLCIPSVLSGVITTIMT | 0.286 ± 0.27 |
| PSCILMNLEVYND | 0.827 ± 0.42 |
| PSCRC | inactive |
| PSFRWIGSEMSTMFMLQVTL | 0.058 ± 0.55 |
| PSHFHHQ | 0.305 ± 0.32 |
| PSQHSIPLLTQVYVLL | 5.54 ± 0.059 |
| PSRLIYDYAAFTVVGLLEMF | -0.235 ± 0.56 |
| PSSACCGSHFLCEQEFMICY | 0.146 ± 0.71 |
| PSYHSRPRSPYGNIEYKEHR | 0.46 ± 0.36 |
| PTDMPGHVTMSRGSCLEWVL | 0.355 ± 0.36 |
| PTGSYKAGSSSSLVYPFED | -0.062 ± 0.52 |
| PTHDILFVTDSLTAKANDMV | -0.189 ± 0.32 |
| PTIKRGTVGFNWVGRACSGK | -0.529 ± 0.57 |
| PTPEANAIKGLYQRGNCVYG | -0.515 ± 1 |
| PTRCQVWLGGTLHVRVVDLS | -0.424 ± 0.4 |
| PTRLPYGTSLIWDTSHANWG | -0.706 ± 0.59 |
| PVMLF | 4.33 ± 0.11 |
| PVQLRFRSSNIWTLMNQVFI | 0.612 ± 0.95 |
| PVRSL | -0.515 ± 0.48 |
| PVYMGIAALYGPGCLTLLTV | 2.07 ± 0.3 |
| PWACSTSRSMLPSSSLPALM | 0.814 ± 0.66 |

| Substance | amyloid nucleation score |
| --- | --- |
| PWITCCKVNGIFLTDRCRVV | 0.574 ± 0.3 |
| PWRAGYGRRKLLSEGDFRLS | 0.218 ± 0.62 |
| PWYDRPRVSYSAFLVWIQLH | -0.417 ± 0.93 |
| PYIVKVCGCDPLVHLFI | 0.608 ± 0.23 |
| PYKGIVMFVSGPP | -0.068 ± 0.54 |
| PYLTICKIDYFYYLGRDSFF | 4.47 ± 0.055 |
| QCAYGWFRIIVITRFFCEDS | -0.701 ± 0.37 |
| QCCLNVLDC | 7.65 ± 0.084 |
| QCSMGGRYVRQDS | -0.197 ± 0.6 |
| QDDISLKFLGFGMIVSLIMF | 0.007 ± 0.24 |
| QDRPYVFY | -0.331 ± 0.44 |
| QECMKLNLAFYWSDCVVRSF | 1.76 ± 0.49 |
| QFLLLPGNHHRFRSRHIRTL | -0.255 ± 0.26 |
| QFVSLKFRVGLATS | 0.045 ± 0.95 |
| QGLGALMVRSFSFYLFVW | -0.241 ± 1.4 |
| QIIKENFRRSY | 2.45 ± 0.55 |
| QIRLYSSGWMFGCAAYVVSM | 0.853 ± 0.41 |
| QISNRYPLVRPTLLFCGFPF | -0.224 ± 0.4 |
| QKDSTPISGWFSFYMSVPFK | inactive |
| QKSVWKSITGRASFYSSLVR | inactive |
| QKSYMCRVGYPF | 0.501 ± 0.72 |
| QLESMIYCVVSFYAAGVNFE | -0.468 ± 1.9 |
| QLTGW | -0.036 ± 0.22 |
| QLVYCCLLILIYTYEC | 0.499 ± 0.42 |
| QMCLFKVNLVVTISI | inactive |

| Substance | amyloid nucleation score |
| --- | --- |
| QMKAVLRLRINICCPQVRGT | 4.66 ± 0.1 |
| QMVYRYDER | -1.43 ± 1.6 |
| QNFWALGPIRRIYFVNVITN | 7.315 ± 0.06 |
| QNPRIKFIQHVPIYNEGTLP | 1.17 ± 0.43 |
| QNWMPRHLTITLNDIRLYL | 4.95 ± 0.12 |
| QPKFLVCFA | 0.101 ± 0.6 |
| QRCTIYRSSI | inactive |
| QRERMRGFKFDRLFCIRVWW | -1.03 ± 0.44 |
| QRFLHVESYESCLVSVSNLS | -0.752 ± 1.9 |
| QRKPVCSGLTLFHMLNRVTK | -0.484 ± 0.65 |
| QRMCVYLGTLPLSLLGRMWG | 0.175 ± 1.1 |
| QRRHMCCVNAFFRDMRKGIG | 1.63 ± 0.43 |
| QRVVKVWWDTKPYVSMGSFL | 0.563 ± 0.44 |
| QSADLMNSMTLICGWSVQIA | 4.43 ± 0.12 |
| QSAYRSR | inactive |
| QSFSLS | 0.609 ± 0.33 |
| QSGAVTSSVRPQRVEVVRVV | -0.904 ± 0.88 |
| QSGGVRVTNWRGNVTAT | 0.043 ± 0.39 |
| QSTNLAFLRICECSE | 3.8 ± 0.071 |
| QSTVTCRFMCVVWGSNW | -0.078 ± 0.47 |
| QSVGMWSY | -0.256 ± 0.88 |
| QSVKTQGVVCAVSIYFGGCS | 2.39 ± 0.23 |
| QTFTYKCFIHYFMRMWLVQI | -0.005 ± 0.75 |
| QTGAAFMVAASRGKKTGVLR | 0.327 ± 0.28 |
| QTGKRYGTFLGYDGLEGRPD | -0.502 ± 0.55 |

| Substance | amyloid nucleation score |
| --- | --- |
| QTKRSCCSFFVNL | 6.603 ± 0.05 |
| QTSDTNWGVLFTVYFLCQDM | -0.059 ± 0.67 |
| QTVGGRFSSFY | inactive |
| QVCRARMHMEVGAMGTFHAS | 0.521 ± 0.41 |
| QVYYVCGYTSDKLLKNSYNN | -0.125 ± 0.45 |
| QWCVKESAFIYEYRLSGDCL | -0.584 ± 0.74 |
| QWGNLFLWKTIAESLLRD | 1.47 ± 0.67 |
| QWLYYVKEPIAYSLL | 0.46 ± 0.24 |
| QYHYNGGLPRQFK | -0.534 ± 0.54 |
| QYMREEAGVALNGETHFFSL | 0.567 ± 0.39 |
| QYPLMK | 0.319 ± 0.32 |
| QYPRFHVTGTGRLCGSRMSY | -0.382 ± 0.4 |
| QYRHTQSYRLELKVHGDFKR | -0.171 ± 1.1 |
| QYVIQAYACTWCRCGKLQSG | 7.693 ± 0.065 |
| RAAALRRKRDD | 0.203 ± 0.42 |
| RACDNMYHYRCLLRSTEHHQ | -0.185 ± 0.22 |
| RACVNSHQRMGGDGSLSMVL | 2.48 ± 0.15 |
| RADIKAIMLNYMIFA | inactive |
| RAFAFTW | 2.38 ± 0.14 |
